These results are taken from patent publication US20060257938A1, “Method of screening for drugs that block ligand binding to a lipid binding protein” (priority 2005, published 2006).

Positions count from the first letter of the chain named.

To fix the notation:
B1: 60T 104T 115W 74F 72A (protein, listed as Rattus norvegicus)
chain: AFDGTWKVDRNENYEKFMEKMGINVVKRKLGAHDNLKLTITQEGNKFTVKESSNFRNIDTVFELGVDFAYSAAFGTELTGTWTMEGNKLVGKFKRVDNGKELITVREISGNELIWTYTYEGVEAKRIFKKE
modifications: PEPTIDE (1)...(131) wild-type rat intestinal fatty acid binding protein
B2: 72T 73W 74E (protein, listed as Rattus norvegicus)
chain: B1 chain with T60V, A72T, A73W, F74E, T104A, W115Q
modifications: PEPTIDE (1)...(131) wild-type rat intestinal fatty acid binding protein
B3: 72S 73W 74S (protein, listed as Rattus norvegicus)
chain: B1 chain with T60V, A72S, A73W, F74S, T104A, W115Q
modifications: PEPTIDE (1)...(131) wild-type rat intestinal fatty acid binding protein
B4: 72V 73L 74W (protein, listed as Rattus norvegicus)
chain: B1 chain with T60V, A72V, A73L, F74W, T104A, W115Q
modifications: PEPTIDE (1)...(131) wild-type rat intestinal fatty acid binding protein
B5: 72A 73W 74E (protein, listed as Rattus norvegicus)
chain: B1 chain with T60V, A73W, F74E, T104A, W115Q
modifications: PEPTIDE (1)...(131) wild-type rat intestinal fatty acid binding protein
B6: 72S 73W 74N (protein, listed as Rattus norvegicus)
chain: B1 chain with T60V, A72S, A73W, F74N, T104A, W115Q
modifications: PEPTIDE (1)...(131) wild-type rat intestinal fatty acid binding protein
B7: 72G 73W 74E (protein, listed as Rattus norvegicus)
chain: B1 chain with T60V, A72G, A73W, F74E, T104A, W115Q
modifications: PEPTIDE (1)...(131) wild-type rat intestinal fatty acid binding protein
B8: 73W 72A 74F (protein, listed as Rattus norvegicus)
chain: B1 chain with T60V, A73W, T104A, W115Q
modifications: PEPTIDE (1)...(131) wild-type rat intestinal fatty acid binding protein
B9: 72S 73W 74E (protein, listed as Rattus norvegicus)
chain: B1 chain with T60V, A72S, A73W, F74E, T104A, W115Q
modifications: PEPTIDE (1)...(131) wild-type rat intestinal fatty acid binding protein
B10: 21F 78V 102V 72A (protein, listed as Rattus norvegicus)
chain: B1 chain with M21F, T60V, F74D, L78V, L102V, T104A, W115Q
modifications: PEPTIDE (1)...(131) wild-type rat intestinal fatty acid binding protein
B11: 72A 73W 74S (protein, listed as Rattus norvegicus)
chain: B1 chain with T60V, A73W, F74S, T104A, W115Q
modifications: PEPTIDE (1)...(131) wild-type rat intestinal fatty acid binding protein
B12: 72T 74V (protein, listed as Rattus norvegicus)
chain: B1 chain with T60V, A72T, F74V, T104A, W115Q
modifications: PEPTIDE (1)...(131) wild-type rat intestinal fatty acid binding protein
B13: 72T 73W 74S (protein, listed as Rattus norvegicus)
chain: B1 chain with T60V, A72T, A73W, F74S, T104A, W115Q
modifications: PEPTIDE (1)...(131) wild-type rat intestinal fatty acid binding protein
B14: 21F 78I 102F 72A (protein, listed as Rattus norvegicus)
chain: B1 chain with M21F, T60V, F74D, L78I, L102F, T104A, W115Q
modifications: PEPTIDE (1)...(131) wild-type rat intestinal fatty acid binding protein

A short description of the first assay: Probe fluorescence ratio response to palmitic acid relative to ADIFAB2. The format is binding. As to conditions: response relative to ADIFAB2. The gist of the method: (§1)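 Each fatty acid's response was expressed relative to ADIFAB2, the rI-FABP-L72A probe, as ΔR/ΔRreference. ΔR is the change in the background-corrected two-wavelength intensity ratio R=Fλ1/Fλ2 from its analyte-free baseline R0. Emission was read near about 420-480 nm for unbound and about 495-580 nm for FFA-bound probe.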
As for B1, the “DR/DR PA” value is listed as 1.920.

For B2, the “DR/DR PA” value amounted to 3.842.

With B3, the “DR/DR PA” value is on record as 3.536.

As for B4, the “DR/DR PA” value stood at 1.276.

Regarding B5, the “DR/DR PA” value worked out at 4.937.

With B6, the “DR/DR PA” value was determined as 3.333.

Take B7: the “DR/DR PA” value is recorded as 3.944.

Consider B8, for which the “DR/DR PA” value was determined as 3.264.

For B9, the “DR/DR PA” value is recorded as 4.210.

Take B10: the “DR/DR PA” value came out at 2.756.

For B11, the “DR/DR PA” value is reported as 4.039.

In the case of B12, the “DR/DR PA” value was 3.149.

Take B13: the “DR/DR PA” value turned out to be 4.155.

As for B14, the “DR/DR PA” value is 2.383.

The nature of a further assay: Probe fluorescence ratio response to arachidonic acid relative to ADIFAB2. The following applies: arachidonic acid; response relative to ADIFAB2. The format is binding. The gist of the method: as §1
Consider B1, for which the “DR/DR AA” value is 0.873.

As for B2, the “DR/DR AA” value stood at 2.442.

Take B3: the “DR/DR AA” value came to 3.545.

B4: the “DR/DR AA” value was 0.500.

As for B5, the “DR/DR AA” value came to 4.093.

On to B6, for which the “DR/DR AA” value is listed as 3.770.

As to B7, the “DR/DR AA” value worked out at 4.229.

B8: the “DR/DR AA” value is on record as 3.378.

Regarding B9, the “DR/DR AA” value was found to be 3.751.

For B10, the “DR/DR AA” value is listed as 4.511.

Regarding B11, the “DR/DR AA” value is 3.211.

For the molecule B12, the “DR/DR AA” value was found to be 2.680.

Regarding B13, the “DR/DR AA” value was determined as 4.129.

Consider B14, for which the “DR/DR AA” value is recorded as 4.836.

The nature of the next assay: Probe fluorescence ratio response to oleic acid relative to ADIFAB2. The format is binding. The following applies: response relative to ADIFAB2. The gist of the method:
as §1
Consider B1, for which the “DR/DR OA” value stood at 1.149.

Consider B2, for which the “DR/DR OA” value was found to be 2.200.

For B3, the “DR/DR OA” value is 2.863.

B4: the “DR/DR OA” value amounted to 0.648.

For B5, the “DR/DR OA” value amounted to 3.277.

In the case of B6, the “DR/DR OA” value came out at 3.490.

As to B7, the “DR/DR OA” value turned out to be 2.755.

As for B8, the “DR/DR OA” value stood at 3.255.

For B9, the “DR/DR OA” value stood at 3.212.

With B10, the “DR/DR OA” value was 4.223.

Take B11: the “DR/DR OA” value came to 3.155.

On to B12, for which the “DR/DR OA” value was found to be 2.957.

B13: the “DR/DR OA” value was 4.177.

Turning to B14, the “DR/DR OA” value worked out at 3.312.

The nature of the next assay: Probe fluorescence ratio response to stearic acid relative to ADIFAB2. The format is binding. The following applies: response relative to ADIFAB2. From the text:
(§2) In an alternate preferred embodiment, the protein is rI-FABP that has Ala substituted for Leu at position 72 (rI-FABP-L72A) with the resulting probe named ADIFAB2. […] Other probes useful in embodiments of the invention are shown in Tables 1-6 and are also described in U.S. application Ser. No. 11/085,792, filed Mar. 21, 2005 which is incorporated herein by reference. The indicated substitutions are with reference to the ADIFAB protein of SEQ ID NO: 2.
(§3) ADIFAB2 also has an altered spectral response, making it especially useful for measurements of FFAu in blood samples (Apple et al, Clinical Proteomics, (2004) 1:41-44, U.S. patent application Ser. No. 10/670,958). The wavelengths at the maximum intensities emitted by these fluorescently-labeled I-FABP's in the absence of FFA is about 420 to 480 nm. The emission wavelengths at the maximum intensities emitted by these fluorescently-labeled I-FABP's with FFA bound are between about 495 to 580 nm. Experiments typically involve measuring the fluorescence response within both emission maxima or at wavelengths for which the effect of interfering molecules such as hemoglobin can be eliminated as described in U.S. application Ser. No. 10/670958 and PCT/US2004/030521 and the calculation of the ratio ‘R’ of the two fluorescence intensities. The baseline value for this ratio, measured in the absence of analyte, is designated R0.
(§4) The intensity ratio (“R” value) is determined as follows. The ratio is calculated using the following formula: R=Fλ1/Fλ2 wherein, Fλ1 is the measured fluorescence intensities (intensity of sample with probe present minus intensity of sample without probe present) at wavelength 1 and Fλ2 is the measured fluorescence intensities (intensity of sample with probe present minus intensity of sample without probe present) at wavelength 2. Then, for a given probe, ΔR, the difference in R value between the measurement in the presence of the test compound (agent) and in the absence of the test compound (agent), is calculated as follows: ΔR=R+agent−R0 In some embodiments, the ΔR value may then be compared to some reference, for example, an agent with a known affinity for a given probe, by ΔR/ΔRreference. Measurements of fluorescence intensities are obtained using standard techniques.
For B1, the “DR/DR SA” value turned out to be 0.633.

B2: the “DR/DR SA” value is 0.877.

Turning to B3, the “DR/DR SA” value stood at 1.106.

In the case of B4, the “DR/DR SA” value was determined as 0.348.

Regarding B5, the “DR/DR SA” value came out at 1.289.

For B6, the “DR/DR SA” value was found to be 1.255.

For B7, the “DR/DR SA” value is given as 0.955.

Turning to B8, the “DR/DR SA” value is listed as 1.485.

In the case of B9, the “DR/DR SA” value is listed as 1.285.

Take B10: the “DR/DR SA” value was found to be 3.120.

For the molecule B11, the “DR/DR SA” value is 1.095.

Regarding B12, the “DR/DR SA” value worked out at 1.781.

As for B13, the “DR/DR SA” value came to 1.620.

As for B14, the “DR/DR SA” value is recorded as 2.367.

A short description of the next assay: Probe fluorescence ratio response to linoleic acid relative to ADIFAB2. The format is binding. The following applies: response relative to ADIFAB2. The gist of the method: as §1
With B1, the “DR/DR LA” value came to 1.609.

With B2, the “DR/DR LA” value amounted to 3.254.

In the case of B3, the “DR/DR LA” value is reported as 3.787.

As for B4, the “DR/DR LA” value is recorded as 1.225.

Regarding B5, the “DR/DR LA” value is given as 4.686.

For the molecule B6, the “DR/DR LA” value is reported as 3.977.

With B7, the “DR/DR LA” value is recorded as 5.045.

For the molecule B8, the “DR/DR LA” value is listed as 3.718.

As for B9, the “DR/DR LA” value is on record as 4.079.

In the case of B10, the “DR/DR LA” value stood at 4.204.

With B11, the “DR/DR LA” value is recorded as 3.806.

On to B12, for which the “DR/DR LA” value is recorded as 3.630.

For B13, the “DR/DR LA” value is 4.612.

Turning to B14, the “DR/DR LA” value was 2.872.

Another assay in a line: Probe fluorescence ratio response to palmitoleic acid relative to ADIFAB2. The format is binding. The following applies: response relative to ADIFAB2.
Excerpt: as §2, §3, §4
Take B1: the “DR/DR POA” value is given as 2.511.

In the case of B2, the “DR/DR POA” value was determined as 5.353.

Take B3: the “DR/DR POA” value was 4.656.

Regarding B4, the “DR/DR POA” value is recorded as 1.710.

For B5, the “DR/DR POA” value came to 6.615.

For the molecule B6, the “DR/DR POA” value stood at 4.867.

For B7, the “DR/DR POA” value is listed as 6.069.

In the case of B8, the “DR/DR POA” value stood at 5.256.

Take B9: the “DR/DR POA” value is reported as 6.109.

Consider B10, for which the “DR/DR POA” value came out at 3.365.

Take B11: the “DR/DR POA” value is 4.864.

Turning to B12, the “DR/DR POA” value is recorded as 4.074.

Consider B13, for which the “DR/DR POA” value was 5.826.

For B14, the “DR/DR POA” value is 2.788.

The next assay is described as follows: Probe fluorescence ratio response to linolenic acid relative to ADIFAB2. The following applies: response relative to ADIFAB2. The format is binding. The gist of the method:
as §1
B1: the “DR/DR LNA” value is 2.017.

For the molecule B2, the “DR/DR LNA” value stood at 3.818.

Turning to B3, the “DR/DR LNA” value came to 4.147.

As for B4, the “DR/DR LNA” value worked out at 1.209.

B5: the “DR/DR LNA” value is 5.422.

In the case of B6, the “DR/DR LNA” value stood at 4.220.

As to B7, the “DR/DR LNA” value is reported as 5.501.

With B8, the “DR/DR LNA” value amounted to 3.875.

B9: the “DR/DR LNA” value worked out at 4.799.

Regarding B10, the “DR/DR LNA” value is on record as 3.775.

As to B11, the “DR/DR LNA” value turned out to be 4.401.

For B12, the “DR/DR LNA” value came to 3.680.

As to B13, the “DR/DR LNA” value stood at 4.826.

Consider B14, for which the “DR/DR LNA” value worked out at 3.006.
